Literature values in publication PMC8780439.
pKd: −log10 of the molar value.

Columns and labels:
[1] = target: Synaptotagmin I (Homo sapiens) (UniProt P21579)
[2] = target: Synaptotagmin II (Homo sapiens) (UniProt Q8N9I0)
[3] = target: Synaptotagmin II (Mus musculus) (UniProt P46097)
Sequence of UniProt P46097 (P46097 whole entry): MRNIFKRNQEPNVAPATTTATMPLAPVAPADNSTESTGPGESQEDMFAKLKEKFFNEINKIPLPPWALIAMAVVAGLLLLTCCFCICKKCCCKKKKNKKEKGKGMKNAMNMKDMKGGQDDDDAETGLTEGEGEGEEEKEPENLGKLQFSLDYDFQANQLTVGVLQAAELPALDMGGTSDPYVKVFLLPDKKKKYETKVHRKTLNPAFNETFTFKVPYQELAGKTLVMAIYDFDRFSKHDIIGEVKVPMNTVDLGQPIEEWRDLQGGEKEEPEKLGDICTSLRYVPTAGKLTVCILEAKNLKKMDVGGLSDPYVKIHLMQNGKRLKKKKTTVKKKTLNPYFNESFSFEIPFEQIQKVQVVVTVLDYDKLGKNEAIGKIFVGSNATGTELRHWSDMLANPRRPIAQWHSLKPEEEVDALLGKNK

Sequence of UniProt Q8N9I0 (Q8N9I0 whole entry): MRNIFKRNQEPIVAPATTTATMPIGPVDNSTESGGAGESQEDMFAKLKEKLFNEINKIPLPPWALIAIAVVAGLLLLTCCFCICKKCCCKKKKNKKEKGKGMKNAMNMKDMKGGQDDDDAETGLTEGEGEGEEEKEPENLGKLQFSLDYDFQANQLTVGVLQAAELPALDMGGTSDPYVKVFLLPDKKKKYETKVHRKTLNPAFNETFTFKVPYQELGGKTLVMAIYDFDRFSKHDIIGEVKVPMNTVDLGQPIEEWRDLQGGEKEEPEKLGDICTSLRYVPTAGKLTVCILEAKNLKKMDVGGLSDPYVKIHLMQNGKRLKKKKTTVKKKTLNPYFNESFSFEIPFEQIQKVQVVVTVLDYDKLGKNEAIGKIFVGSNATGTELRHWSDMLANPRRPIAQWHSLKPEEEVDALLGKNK
Sequence of UniProt P21579 (P21579 whole entry): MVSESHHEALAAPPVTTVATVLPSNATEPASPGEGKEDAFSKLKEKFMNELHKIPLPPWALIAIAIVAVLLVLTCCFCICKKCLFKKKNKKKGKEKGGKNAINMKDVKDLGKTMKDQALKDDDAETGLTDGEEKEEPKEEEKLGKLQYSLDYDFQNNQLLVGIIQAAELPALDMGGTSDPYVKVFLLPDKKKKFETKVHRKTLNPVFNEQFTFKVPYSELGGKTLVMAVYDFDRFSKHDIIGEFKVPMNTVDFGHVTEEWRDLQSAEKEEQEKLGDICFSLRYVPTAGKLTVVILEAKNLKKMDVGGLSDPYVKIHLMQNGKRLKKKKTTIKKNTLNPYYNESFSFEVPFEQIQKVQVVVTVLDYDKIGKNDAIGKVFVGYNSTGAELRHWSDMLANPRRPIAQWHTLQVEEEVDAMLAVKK

| Substance | pKd [1] | pKd [2] | pKd [3] |
| --- | --- | --- | --- |
| BoNT/B (from UniProt P10844) | < 4.70 |  |  |
| BoNT/B heavy chain (from UniProt B1INP5) |  | < 4.70 | 6.89 |
